Laboratory results reported in article PMC10786891, “Massively parallel profiling of RNA-targeting CRISPR-Cas13d”.
Positions count from the first letter of the chain named. Numbers in names are those of the source.

T1: EsCas13d, nuclease-dead (Eubacterium siraeum, UniProt B0MS50, R295A;H300A;R849A;H854A)
T1 sequence: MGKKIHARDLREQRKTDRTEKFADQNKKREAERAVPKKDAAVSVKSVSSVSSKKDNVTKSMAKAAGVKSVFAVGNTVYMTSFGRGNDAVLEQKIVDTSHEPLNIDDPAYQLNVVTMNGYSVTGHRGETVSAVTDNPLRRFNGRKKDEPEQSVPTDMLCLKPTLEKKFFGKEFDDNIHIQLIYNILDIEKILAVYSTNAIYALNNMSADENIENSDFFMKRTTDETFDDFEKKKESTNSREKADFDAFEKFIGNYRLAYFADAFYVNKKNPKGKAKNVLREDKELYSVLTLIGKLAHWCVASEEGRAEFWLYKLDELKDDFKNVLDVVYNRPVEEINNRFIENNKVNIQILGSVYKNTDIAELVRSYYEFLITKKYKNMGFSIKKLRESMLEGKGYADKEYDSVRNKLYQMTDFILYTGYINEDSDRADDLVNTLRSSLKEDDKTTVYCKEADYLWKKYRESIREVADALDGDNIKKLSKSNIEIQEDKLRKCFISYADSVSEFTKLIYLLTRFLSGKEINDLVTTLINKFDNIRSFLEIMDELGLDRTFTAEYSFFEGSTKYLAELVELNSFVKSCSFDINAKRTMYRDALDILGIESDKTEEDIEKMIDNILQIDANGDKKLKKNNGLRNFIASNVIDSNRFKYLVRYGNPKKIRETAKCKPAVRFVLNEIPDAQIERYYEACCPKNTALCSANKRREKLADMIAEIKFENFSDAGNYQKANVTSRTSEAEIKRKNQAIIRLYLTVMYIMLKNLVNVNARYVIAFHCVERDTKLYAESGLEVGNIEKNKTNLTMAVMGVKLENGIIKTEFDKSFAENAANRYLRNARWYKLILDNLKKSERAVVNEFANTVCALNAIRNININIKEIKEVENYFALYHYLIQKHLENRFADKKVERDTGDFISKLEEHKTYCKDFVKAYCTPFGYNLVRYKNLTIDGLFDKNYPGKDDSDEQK

B1: target 1 U3C,U8A (mixed)
RNA 1: CACCCGUGCAAAAAUGCAGGGGUCUAAAACUGAGCGGAUAACCUCUCUAUGG
RNA 2: GGGAAUGGAUCCACAUCUACGAAUUCGUACCAUAGAGAGGUUAACCGCCCACCGAGAUCGGAAGAGCACACGU
B2: target 1 insG 3' of 21,insG 3' of 7 (mixed)
RNA 1: B1 RNA 1
RNA 2: GGGAAUGGAUCCACAUCUACGAAUUCGUACCGAUAGAGAGGUUAUCGCGCUCACCGAGAUCGGAAGAGCACACGU
B3: target 1 insU 3' of 21,insG 3' of 7 (mixed)
RNA 1: B1 RNA 1
RNA 2: B2 RNA 2 with G32U
B4: target 1 insC 3' of 9,insG 3' of 9 (mixed)
RNA 1: B1 RNA 1
RNA 2: GGGAAUGGAUCCACAUCUACGAAUUCGUACCAUAGAGAGGUUACGUCCGCUCACCGAGAUCGGAAGAGCACACGU
B5: target 1 insA 3' of 22,insU 3' of 14 (mixed)
RNA 1: B1 RNA 1
RNA 2: B2 RNA 2 with C31A, G32C, G40U, U42G, A44U, U45A, C46U, G47C
B6: target 1 A18U,A20U (mixed)
RNA 1: B1 RNA 1
RNA 2: B1 RNA 2 with A32U, A34U, A44U, C49U
B7: target 1 insC 3' of 12,insG 3' of 7 (mixed)
RNA 1: B1 RNA 1
RNA 2: B4 RNA 2 with U41C, A43U, C44A, G45U, U46C, C47G
B8: target 1 complement block 5-7 (mixed)
RNA 1: B1 RNA 1
RNA 2: B1 RNA 2 with A44U, C45G, C46G, G47C, C49U
B9: target 1 C7U,A20C (mixed)
RNA 1: B1 RNA 1
RNA 2: B1 RNA 2 with A32C, A44U, C45U, C49U
B10: target 1 C4G,U11G (mixed)
RNA 1: B1 RNA 1
RNA 2: B1 RNA 2 with U41G, A44U, C48G, C49U
B11: target 1 insU 3' of 13,insG 3' of 11 (mixed)
RNA 1: B1 RNA 1
RNA 2: B4 RNA 2 with G40U, U41G, A43G, C44U, G45A
B12: target 1 insC 3' of 19,insU 3' of 4 (mixed)
RNA 1: B1 RNA 1
RNA 2: B2 RNA 2 with G32A, A33U, U34C, G47C, C48G, G49C, C50U
B13: target 1 U19G,C21A (mixed)
RNA 1: B1 RNA 1
RNA 2: B1 RNA 2 with C31A, U33G, A44U, C49U
B14: target 1 G5C,U10G (mixed)
RNA 1: B1 RNA 1
RNA 2: B1 RNA 2 with U42G, A44U, G47C, C49U
B15: target 1 C4G,A14C (mixed)
RNA 1: B1 RNA 1
RNA 2: B1 RNA 2 with A38C, A44U, C48G, C49U
B16: target 1 A9G,G15C (mixed)
RNA 1: B1 RNA 1
RNA 2: B1 RNA 2 with G37C, A43G, A44U, C49U

target: T1, EsCas13d, nuclease-dead; assay: crRNA (strand 1, pre-loaded); Mg2+; 40 mM Tris-HCl pH 7.5, 150 mM NaCl, 6 mM MgCl2, 1 mM DTT, 0.1% Tween-20, 0.2 mg/ml BSA; 25 C; 10 min per concentration, then washed; conditions: tags: His6-TwinStrep-SUMO cleaved; N-terminal SNAP kept (SNAP-Surface 488); label: 3' end held by stalled T7 RNA polymerase

How did the Kd turn out when B1 was run?
Its Kd is 18.7 ± 1.5 nM.

With B2 as the binder, how does the Kd read?
The Kd was 68 ± 5 nM.

B3 was tested. Which Kd did it give?
The Kd was 23.6 ± 2 nM.

How did the Kd turn out when B4 was run?
The Kd was 18.5 ± 1.2 nM.

For B5, which Kd is on record?
The Kd was 41 ± 20 nM.

For B6, which Kd is on record?
Its Kd is 95 ± 17 nM.

Which Kd does the source give for B7 here?
The Kd was 16.2 ± 0.9 nM.

Which Kd does the source give for B8 here?
Its Kd is 32.9 ± 1.5 nM.

Which Kd does the source give for B9 here?
Its Kd is 37 ± 8 nM.

Which Kd does the source give for B10 here?
Its Kd is 5.73 ± 0.29 nM.

How did the Kd turn out when B11 was run?
Its Kd is 39 ± 8 nM.

For B12, which Kd is on record?
Its Kd is 32.2 ± 3.2 nM.

B13 was tested. Which Kd did it give?
Its Kd is 56 ± 7 nM.

Which Kd does the source give for B14 here?
Its Kd is 17.5 ± 0.9 nM.

For B15, which Kd is on record?
The Kd was 14.1 ± 2.8 nM.

B16 was tested. Which Kd did it give?
The Kd was 67 ± 20 nM.
